{
  "source": "paper PMC9519967",
  "target": "His-tagged Grb3-3 SH2 domain and C-terminal SH3 domain (SH2Δ40CSH3) (human) (UniProt P62993)",
  "experiment": "MST",
  "data": [
    {"substance": "Sos-C-Tail-6 truncated peptide (without GST) (from UniProt Q07889)", "values": [
      {"measurement": "Kd", "value": 145, "unit": "µM"}
    ]},
    {"substance": "Sos-C-Tail-8 truncated peptide (without GST) (from UniProt Q07889)", "values": [
      {"measurement": "Kd", "value": 297, "unit": "µM"}
    ]}
  ]
}
